Test results from the Human Domainome abundance scans (Beltran et al. 2025).
± gives the uncertainty stated by the source.

B1: Tudor domain-containing protein 3, residues 554 to 611; numbered along this chain, Q9H7E2 (parent)
chain: KMWKPGDECFALYWEDNKFYRAEVEALHSSGMTAVVKFIDYGNYEEVLLSNIKPIQTE

Variants of: B1
Experiment: abundance fitness (aPCA) (normalised: wild type 0, dead -1); higher = more abundant; growth selection in yeast, the domain comes from the species named
Conditions: Homo sapiens

Row | Variant | abundance fitness
1 | K4S | -0.149 ± 0.065
2 | T33I | -0.276 ± 0.094
3 | C9R | -0.819 ± 0.083
4 | C9W | -0.773 ± 0.095
5 | C9A | -0.765 ± 0.1
6 | C9D | -1.03 ± 0.23
7 | C9L | -0.913 ± 0.086
8 | S30K | -0.172 ± 0.094
9 | S30V | -0.501 ± 0.063
10 | S30L | -0.37 ± 0.073
11 | S30I | -0.322 ± 0.12
12 | S30Q | -0.254 ± 0.11
13 | S30N | -0.04 ± 0.099
14 | S50K | 0.03 ± 0.08
15 | S50A | 0.019 ± 0.077
16 | S50V | -0.082 ± 0.063
17 | L48P | -0.077 ± 0.08
18 | L48T | -0.218 ± 0.084
19 | L48H | -0.152 ± 0.1
20 | L48Q | -0.008 ± 0.09
21 | A22T | -0.865 ± 0.14
22 | A22S | -0.637 ± 0.087
23 | E25Y | 0.046 ± 0.12
24 | E25V | 0.013 ± 0.063

Row | Variant | abundance fitness
25 | G42T | -0.736 ± 0.27
26 | G42C | -0.315 ± 0.14
27 | G42V | -0.926 ± 0.11
28 | A26K | 0.158 ± 0.17
29 | A26E | 0.211 ± 0.17
30 | A26Y | -0.062 ± 0.21
31 | A26F | 0.101 ± 0.21
32 | A26Q | -0.322 ± 0.2
33 | V36F | -0.964 ± 0.2
34 | V36K | -0.843 ± 0.17
35 | V36I | -0.295 ± 0.089
36 | D16L | -0.588 ± 0.085
37 | W3N | -0.737 ± 0.28
38 | W3S | -0.885 ± 0.1
39 | V47S | -0.926 ± 0.1
40 | E23N | 0.059 ± 0.097
41 | E23H | 0.071 ± 0.088
42 | G6M | -0.922 ± 0.13
43 | G6I | -0.941 ± 0.2
44 | G6L | -0.836 ± 0.083
45 | G6D | -0.874 ± 0.089
46 | G6F | -0.828 ± 0.12
47 | G6P | -0.985 ± 0.13
48 | K1A | -0.218 ± 0.14

Row | Variant | abundance fitness
49 | K1I | 0.134 ± 0.2
50 | I55D | -0.415 ± 0.1
51 | I55S | -0.192 ± 0.067
52 | I55A | -0.028 ± 0.079
53 | F38N | -0.802 ± 0.2
54 | F38Q | -0.946 ± 0.13
55 | N51V | -0.925 ± 0.083
56 | N51E | -0.272 ± 0.069
57 | Y20E | -0.516 ± 0.09
58 | Y20H | 0.081 ± 0.12
59 | Y13Q | -0.292 ± 0.092
60 | Y13M | -0.287 ± 0.1
61 | Y13D | -0.345 ± 0.15
62 | Y13L | -0.15 ± 0.072
63 | Y41L | -0.045 ± 0.064
64 | T57W | -0.272 ± 0.096
65 | T57V | 0.04 ± 0.063
66 | T57E | 0.114 ± 0.092
67 | K37A | -0.996 ± 0.1
68 | I52W | -0.81 ± 0.11
69 | I52M | 0.028 ± 0.12
70 | I52P | -0.639 ± 0.12
71 | I52A | -0.824 ± 0.093
72 | I52D | -0.857 ± 0.13

Row | Variant | abundance fitness
73 | I52G | -0.895 ± 0.064
74 | I52C | -0.37 ± 0.077
75 | I52H | -1.04 ± 0.34
76 | L49W | -0.629 ± 0.1
77 | L49F | -0.602 ± 0.14
78 | F10A | -0.178 ± 0.072
79 | F10Q | -0.006 ± 0.099
80 | F10M | 0.068 ± 0.085
81 | F10D | -0.267 ± 0.1
82 | F10W | -0.051 ± 0.079
83 | L27F | -0.716 ± 0.14
84 | Q56G | 0.031 ± 0.056
85 | E58T | -0.037 ± 0.23
86 | E58V | -0.136 ± 0.084
87 | E58S | 0.113 ± 0.11
88 | V24W | -0.811 ± 0.093
89 | M2N | -0.169 ± 0.17
90 | M2K | -0.36 ± 0.11
91 | M2R | -0.254 ± 0.086
92 | G31P | -0.48 ± 0.086
93 | G31M | -0.043 ± 0.11
94 | G31L | -0.267 ± 0.075
95 | G31K | -0.148 ± 0.1
96 | G31R | -0.033 ± 0.055

Row | Variant | abundance fitness
97 | G31N | -0.057 ± 0.14
98 | I39F | -0.083 ± 0.1
99 | P54Y | -0.565 ± 0.14
100 | P54Q | -0.188 ± 0.097
101 | V35S | -0.032 ± 0.071
102 | V35I | -0.16 ± 0.13
103 | V35D | -0.426 ± 0.12
104 | E45G | -0.101 ± 0.054
105 | E45W | -0.788 ± 0.089
106 | E45I | -0.975 ± 0.21
107 | N17M | -0.191 ± 0.098
108 | N43F | -0.052 ± 0.19
109 | N43G | -0.162 ± 0.045
110 | N43L | 0.01 ± 0.064
111 | N43P | -0.563 ± 0.11
112 | N43C | -0.059 ± 0.085
113 | N43W | -0.059 ± 0.058
114 | K18T | -0.087 ± 0.087
115 | K18A | -0.126 ± 0.089
116 | K18P | -0.949 ± 0.16
117 | K18I | -0.273 ± 0.12
118 | K18L | -0.254 ± 0.075
119 | K18C | -0.188 ± 0.08
120 | A34Y | -0.897 ± 0.29

Row | Variant | abundance fitness
121 | A34S | -0.73 ± 0.093
122 | A34E | -0.976 ± 0.12
123 | A34D | -0.931 ± 0.13
124 | A34L | -0.404 ± 0.074
125 | A34V | -0.078 ± 0.065
126 | D7C | -0.573 ± 0.14
127 | D7Q | -0.321 ± 0.094
128 | D7S | -0.608 ± 0.078
129 | D7I | -0.826 ± 0.17
130 | F19C | -1.02 ± 0.14
131 | F19P | -0.81 ± 0.13
132 | F19A | -0.831 ± 0.087
133 | F19G | -0.925 ± 0.077
134 | H28A | 0.024 ± 0.075
135 | H28W | -0.871 ± 0.095
136 | H28F | -0.619 ± 0.14
137 | L12T | -0.861 ± 0.12
138 | L12W | -0.384 ± 0.083
139 | L12F | -0.493 ± 0.15
140 | E15K | 0.081 ± 0.082
141 | E15S | -0.114 ± 0.06
142 | M32W | -0.137 ± 0.07
143 | M32D | -0.057 ± 0.097
144 | M32P | -0.266 ± 0.081

Row | Variant | abundance fitness
145 | M32H | 0.086 ± 0.11
146 | P5R | -0.123 ± 0.052
147 | P5M | -0.401 ± 0.1
148 | P5T | -0.024 ± 0.079
149 | P5E | -0.187 ± 0.11
150 | P5G | -0.61 ± 0.064
151 | E46F | -0.697 ± 0.19
152 | E46S | -0.029 ± 0.076
153 | R21W | -0.766 ± 0.093
154 | R21M | -0.506 ± 0.096
155 | R21Q | -0.13 ± 0.1
156 | Y44H | -0.13 ± 0.1
157 | Y44G | -0.767 ± 0.062
158 | Y44C | 0.097 ± 0.079
159 | Y44P | -0.473 ± 0.096
160 | E8P | -0.032 ± 0.088
161 | E8T | -0.083 ± 0.093
162 | E8I | 0.056 ± 0.1
163 | E8M | -0.046 ± 0.12
164 | K53Q | -0.12 ± 0.1
165 | W14E | 0.011 ± 0.077
166 | W14F | -0.136 ± 0.084
167 | W14G | 0.073 ± 0.054
